Data reported in patent US20120129766A1 (IRM, published 2012).

T1: human β-klotho (human, UniProt Q86Z14 1-1044)
T1 sequence (looked up): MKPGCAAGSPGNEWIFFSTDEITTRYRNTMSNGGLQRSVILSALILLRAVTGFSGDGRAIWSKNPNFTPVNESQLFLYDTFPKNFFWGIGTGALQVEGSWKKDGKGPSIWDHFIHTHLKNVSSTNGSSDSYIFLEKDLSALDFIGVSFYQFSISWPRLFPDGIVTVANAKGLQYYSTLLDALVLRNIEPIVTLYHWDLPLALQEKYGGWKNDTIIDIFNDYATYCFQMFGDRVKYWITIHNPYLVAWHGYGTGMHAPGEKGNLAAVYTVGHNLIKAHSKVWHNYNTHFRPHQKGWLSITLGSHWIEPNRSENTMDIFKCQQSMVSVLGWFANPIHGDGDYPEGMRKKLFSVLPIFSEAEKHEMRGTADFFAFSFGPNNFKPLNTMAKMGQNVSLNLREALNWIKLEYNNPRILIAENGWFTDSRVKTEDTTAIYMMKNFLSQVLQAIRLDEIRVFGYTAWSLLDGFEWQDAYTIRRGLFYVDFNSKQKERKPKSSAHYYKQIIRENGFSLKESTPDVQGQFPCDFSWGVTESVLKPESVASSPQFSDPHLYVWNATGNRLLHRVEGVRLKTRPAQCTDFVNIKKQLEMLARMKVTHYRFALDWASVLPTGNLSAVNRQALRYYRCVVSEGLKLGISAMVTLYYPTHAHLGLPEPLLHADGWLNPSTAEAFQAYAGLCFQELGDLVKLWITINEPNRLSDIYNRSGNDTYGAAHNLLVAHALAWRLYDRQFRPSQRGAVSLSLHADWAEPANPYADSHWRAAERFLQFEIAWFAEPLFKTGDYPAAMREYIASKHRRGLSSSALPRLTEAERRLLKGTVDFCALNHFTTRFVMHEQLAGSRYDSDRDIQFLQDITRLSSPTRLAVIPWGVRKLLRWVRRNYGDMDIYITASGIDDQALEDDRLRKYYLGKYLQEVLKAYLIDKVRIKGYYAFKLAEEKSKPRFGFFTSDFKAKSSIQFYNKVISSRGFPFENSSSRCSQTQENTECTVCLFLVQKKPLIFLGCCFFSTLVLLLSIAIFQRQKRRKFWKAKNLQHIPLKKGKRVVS


target: T1, human β-klotho; assay: cell-based or functional assay

Row | Binder | EC50 (nM), pERK In Cell Western [nM] | Fold-WT (EC50 of variant / EC50 of FGF21-WT) [fold]
1 | hFGF21(33-209)-V79 (ligand) DSSPLLQFGGQVRQRYLYTDDAQQTEAHLEIREDGTVGGAAHQSPESLLELKALKPGVIQILGVKTSRFLCQKPDGALYGSLHFDPEACSFRELLLEDGYNVYQSEAHGLPLHLPGNRSPHCDPAPQGPARFLPLPGLPPALPEPPGILAPQPPDVGSSDPLAMVGPSQARSPSYAS | 2.2 | 0.4
2 | hFGF21(33-209)-V86 (ligand) DSSPLLQFGGQVRQRYLYTDDAQQTEAHLEIREDGTVGGAADQSPESLLQLRALRPGVIQILGVRTSRFLCQRPDGALYGSLHFDPEACSFRELLLEDGYNVYQSEAHGLPLHLPGNRSPHKDPAPRGPARFLPLPGLPPAPPEPPGILAPQPPDVGSSDPLAMVGPSQGRSPSYAS | 8.5 | 4.5
3 | hFGF21(33-209)-WT-N-40 kDa bPEG-AL (ligand, 40 kDa branched PEG (aldehyde reagent) on the N-terminal amine) DSSPLLQFGGQVRQRYLYTDDAQQTEAHLEIREDGTVGGAADQSPESLLQLKALKPGVIQILGVKTSRFLCQRPDGALYGSLHFDPEACSFRELLLEDGYNVYQSEAHGLPLHLPGNKSPHRDPAPRGPARFLPLPGLPPALPEPPGILAPQPPDVGSSDPLSMVGPSQGRSPSYAS | 20 | 6.3
4 | hFGF21(33-209)-V81 (ligand) DSSPLLQFGGQVRQRYLYTDDAQQTEAHLEIREDGTVGGAAHQSPESLLELKALKPGVIQILGVKTSRFLCQKPDGALYGSLHFDPEACSFRELLLEDGYNVYQSEAHGLPLHLPGNRSPHCDPASQGPARFLPLPGLPPALPEPPGILAPQPPDVGSSDPLAMVGPSQGRSPSYAS | 11 | 2.1
5 | hFGF21(33-209)-V85 (ligand) DSSPLLQFGGQVRQRYLYTDDAQQTEAHLEIREDGTVGGAAHQSPESLLELKALKPGVIQILGVKTSRFLCQKPDGALYGSLHFDPEACSFRELLLEEGYNVYQSEAHGLPLHLPGNRSPHCDPAPQGPARFLPLPGLPPALPEPPGILAPQPPDVGSSDPLAMVGPSQGRSPSYAS | 2 | 0.3
6 | hFGF21(33-209)-WT-R154C (ligand) DSSPLLQFGGQVRQRYLYTDDAQQTEAHLEIREDGTVGGAADQSPESLLQLKALKPGVIQILGVKTSRFLCQRPDGALYGSLHFDPEACSFRELLLEDGYNVYQSEAHGLPLHLPGNKSPHCDPAPRGPARFLPLPGLPPALPEPPGILAPQPPDVGSSDPLSMVGPSQGRSPSYAS | 4.2 | 1.3
7 | hFGF21(33-209)-WT-R154C-40 kDa bPEG-MA (ligand, 40 kDa branched maleimido-PEG on Cys 154 (numbered on SEQ ID NO:1)) DSSPLLQFGGQVRQRYLYTDDAQQTEAHLEIREDGTVGGAADQSPESLLQLKALKPGVIQILGVKTSRFLCQRPDGALYGSLHFDPEACSFRELLLEDGYNVYQSEAHGLPLHLPGNKSPHCDPAPRGPARFLPLPGLPPALPEPPGILAPQPPDVGSSDPLSMVGPSQGRSPSYAS | 9 | 2.9
8 | hFGF21(33-209)-WT-AM (ligand) DSSPLLQFGGQVRQRYLYTDDAQQTEAHLEIREDGTVGGAADQSPESLLQLKALKPGVIQILGVKTSRFLCQRPDGALYGSLHFDPEACSFRELLLEDGYNVYQSEAHGLPLHLPGNKSPHRDPAPRGPARFLPLPGLPPAPPEPPGILAPQPPDVGSSDPLSMVGPSQGRSPSYAS | 5.7 | 1.5
9 | hFGF21(33-209)-V83 (ligand) DSSPLLQFGGQVRQRYLYTDDAQQTEAHLEIREDGTVGGAADQSPESLLELKALKPGVIQILGVKTSRFLCQKPDGTLYGSLHFDPEACSFRELLLEDGYNVYQSEAHGLPLHLPGNRSPHCDPASRGPARFLPLPGLPPALPEPPGILAPQPPDVGSSDPLAMVGPSQARSPSYAS | 0.21 | 0.38
10 | hFGF21(33-209)-WT-CH (ligand) DSSPLLQFGGQVRQRYLYTDDAQQTEAHLEIREDGTVGGAADQSPESLLQLKALKPGVIQILGVKTSRFLCQRPDGALYGSLHFDPEACSFRELLLEDGYNVYQSEAHGLPLHLPGNKSPHRDPAPRGPARFLPLPGLPPALPEPPGILAPQPPDVGSSDPLSMVGPSQGRSPSYAS | 7.4 | 1
11 | hFGF21(33-209)-V84 (ligand) DSSPLLQFGGQVRQRYLYTDDAQQTEAHLEIREDGTVGGAADQSPESLLELKALKPGVIQILGVKTSRFLCQRPDGTLYGSLHFDPEACSFRELLLEDGYNVYQSETHGLPLHLPGNRSPHCDPASRGPARFLPLPGLPPALPEPPGILAPQPPDVGSSDPLAMVGPSQARSPSYAS | 4.5 | 1.1
12 | hFGF21(33-209)-V82 (ligand) DSSPLLQFGGQVRQRYLYTDDAQQTEAHLEIREDGTVGGAADQSPESLLELKALKPGVIQILGVKTSRFLCQKPDGTLYGSLHFDPEACSFRELLLEDGYNVYQSEAHGLPLHLPGNRSPHCDPASQGPARFLPLPGLPPALPEPPGILAPQPPDVGSSDPLAMVGPSQGRSPSYAS | 1.5 | 2.7
13 | hFGF21(33-209)-V80 (ligand) DSSPLLQFGGQVRQRYLYTDDAQQTEAHLEIREDGTVGGAADQSPESLLELKALKPGVIQILGVKTSRFLCQKPDGTLYGSLHFDPEACSFRELLLEDGYNVYQSEAHGLPLHLPGNRSPHCDPAPQGPARFLPLPGLPPALPEPPGILAPQPPDVGSSDPLAMVGPSQARSPSYAS | 2.2 | 0.4
14 | hFGF21(33-209)-V9 (ligand) DSSPLLQFGGQVRQRYLYTDDDQQTEAHLEIREDGTVGGAAHQSPESLLQLKALKPGVIQILGVKASRFLCQKPDGALYGSLHFDPEACSFRELLLENGYNVYQSETHGLPLHLPGNKSPHRDPASQGPARFLPLPGLPPALPEPPGILAPQPPDVGSSDPLAMVGPSQARSPSYAS | 13 | 2.4
15 | hFGF21(33-209)-V87 (ligand) DSSPLLQFGGQVRQRYLYTDDACQTEAHLEIREDGTVGGAADQSPESLLQLRALRPGVIQILGVRTSRFLCQRPDGALYGSLHFDPEACSFRELLLEDGYNVYQSEAHGLPLHLPCNRSPHKDPAPRGPARFLPLPGLPPAPPEPPGILAPQPPDVGSSDPLAMVGPSQGRSPSYAS | 1.9 | 1.6
